Assay results: the supplement of paper PMC9112550, “Optimization of the antimicrobial peptide Bac7 by deep mutational scanning” (BMC Biology, 2022)

test system: Escherichia coli TOP10; assay: shrunken log2 fold change of peptide-encoding DNA abundance (4.5 h post-induction vs induction); higher = less antimicrobial activity (less host growth inhibition); conditions: time post-induction: 4.5 h; library: site-saturation at positions 5, 18, 19, 20
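Note: peptides expressed intracellularly from a pBAD plasmid library in pooled LB shake-flask culture, induced with 0.3% L-arabinose, DNA abundance read by NGS, three biological replicates, DESeq2 with apeglm shrinkage.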

Row | Sequence | shrunken log2 fold change
1 | RRIRGRPPRLPRPRPRPEDPPRP | 1.38
2 | RRIRGRPPRLPRPRPRPEDYPRP | 0.555
3 | RRIRGRPPRLPRPRPRPEELPRP | 1.39
4 | RRIRGRPPRLPRPRPRPEFLPRP | 1.01
5 | RRIRGRPPRLPRPRPRPEGKPRP | 0.574
6 | RRIRGRPPRLPRPRPRPEHKPRP | 0.464
7 | RRIRGRPPRLPRPRPRPEHPPRP | 0.281
8 | RRIRGRPPRLPRPRPRPEHTPRP | 0.0464
9 | RRIRGRPPRLPRPRPRPEIAPRP | 1.86
10 | RRIRGRPPRLPRPRPRPEIDPRP | 1.63
11 | RRIRGRPPRLPRPRPRPEINPRP | 0.797
12 | RRIRGRPPRLPRPRPRPEKFPRP | 0.716
13 | RRIRGRPPRLPRPRPRPEKQPRP | 0.034
14 | RRIRGRPPRLPRPRPRPEKTPRP | -0.0522
15 | RRIRGRPPRLPRPRPRPEMDPRP | 0.982
16 | RRIRGRPPRLPRPRPRPENPPRP | 0.842
17 | RRIRGRPPRLPRPRPRPEPVPRP | 0.806
18 | RRIRGRPPRLPRPRPRPEQQPRP | -0.0199
19 | RRIRGRPPRLPRPRPRPETAPRP | 1.76
20 | RRIRGRPPRLPRPRPRPETVPRP | 0.431
21 | RRIRGRPPRLPRPRPRPEVEPRP | 2.03
22 | RRIRGRPPRLPRPRPRPEWHPRP | 0.386
23 | RRIRGRPPRLPRPRPRPEWSPRP | 0.644
24 | RRIRGRPPRLPRPRPRPFAAPRP | 1.82
25 | RRIRGRPPRLPRPRPRPFACPRP | 0.39

Row | Sequence | shrunken log2 fold change
26 | RRIRGRPPRLPRPRPRPFEQPRP | 0.618
27 | RRIRGRPPRLPRPRPRPFEVPRP | 0.121
28 | RRIRGRPPRLPRPRPRPFFLPRP | 0.301
29 | RRIRGRPPRLPRPRPRPFFTPRP | 0.215
30 | RRIRGRPPRLPRPRPRPFGRPRP | -0.0748
31 | RRIRGRPPRLPRPRPRPFIFPRP | 0.516
32 | RRIRGRPPRLPRPRPRPFIHPRP | 0.0282
33 | RRIRGRPPRLPRPRPRPFIMPRP | -0.285
34 | RRIRGRPPRLPRPRPRPFKFPRP | -0.11
35 | RRIRGRPPRLPRPRPRPFKGPRP | -0.00192
36 | RRIRGRPPRLPRPRPRPFMEPRP | -0.114
37 | RRIRGRPPRLPRPRPRPFMMPRP | -0.467
38 | RRIRGRPPRLPRPRPRPFMPPRP | -0.0647
39 | RRIRGRPPRLPRPRPRPFNGPRP | 0.0458
40 | RRIRGRPPRLPRPRPRPFQVPRP | 0.0301
41 | RRIRGRPPRLPRPRPRPFRQPRP | 0.124
42 | RRIRGRPPRLPRPRPRPFTFPRP | -0.0577
43 | RRIRGRPPRLPRPRPRPFTIPRP | -0.0307
44 | RRIRGRPPRLPRPRPRPFVAPRP | 0.751
45 | RRIRGRPPRLPRPRPRPFVFPRP | 0.608
46 | RRIRGRPPRLPRPRPRPFVLPRP | -0.000308
47 | RRIRGRPPRLPRPRPRPFVVPRP | 0.222
48 | RRIRGRPPRLPRPRPRPFWHPRP | 0.297
49 | RRIRGRPPRLPRPRPRPFWWPRP | 0.806
50 | RRIRGRPPRLPRPRPRPFWYPRP | -0.0145

Row | Sequence | shrunken log2 fold change
51 | RRIRGRPPRLPRPRPRPFYEPRP | 0.0153
52 | RRIRGRPPRLPRPRPRPFYVPRP | 0.0462
53 | RRIRGRPPRLPRPRPRPGAAPRP | 1.43
54 | RRIRGRPPRLPRPRPRPGAWPRP | 1.56
55 | RRIRGRPPRLPRPRPRPGAYPRP | 0.339
56 | RRIRGRPPRLPRPRPRPGCGPRP | 1.31
57 | RRIRGRPPRLPRPRPRPGEWPRP | -0.0156
58 | RRIRGRPPRLPRPRPRPGHWPRP | 0.387
59 | RRIRGRPPRLPRPRPRPGIMPRP | 0.374
60 | RRIRGRPPRLPRPRPRPGIPPRP | 0.351
61 | RRIRGRPPRLPRPRPRPGKVPRP | 0.598
62 | RRIRGRPPRLPRPRPRPGMAPRP | 0.877
63 | RRIRGRPPRLPRPRPRPGNHPRP | -0.147
64 | RRIRGRPPRLPRPRPRPGNMPRP | -0.0382
65 | RRIRGRPPRLPRPRPRPGPCPRP | 0.854
66 | RRIRGRPPRLPRPRPRPGPIPRP | 0.619
67 | RRIRGRPPRLPRPRPRPGQRPRP | 0.345
68 | RRIRGRPPRLPRPRPRPGQTPRP | 0.405
69 | RRIRGRPPRLPRPRPRPGRKPRP | 0.747
70 | RRIRGRPPRLPRPRPRPGRQPRP | 0.654
71 | RRIRGRPPRLPRPRPRPGTSPRP | 0.278
72 | RRIRGRPPRLPRPRPRPGTVPRP | 0.206
73 | RRIRGRPPRLPRPRPRPGVYPRP | 0.0589
74 | RRIRGRPPRLPRPRPRPGWYPRP | -0.0318
75 | RRIRGRPPRLPRPRPRPHCRPRP | 0.376

Row | Sequence | shrunken log2 fold change
76 | RRIRGRPPRLPRPRPRPHEDPRP | 3.55
77 | RRIRGRPPRLPRPRPRPHEIPRP | 0.0317
78 | RRIRGRPPRLPRPRPRPHFIPRP | -0.139
79 | RRIRGRPPRLPRPRPRPHFKPRP | 0.178
80 | RRIRGRPPRLPRPRPRPHFSPRP | -0.115
81 | RRIRGRPPRLPRPRPRPHFTPRP | 0.233
82 | RRIRGRPPRLPRPRPRPHGLPRP | 0.211
83 | RRIRGRPPRLPRPRPRPHGWPRP | 0.161
84 | RRIRGRPPRLPRPRPRPHHAPRP | 0.254
85 | RRIRGRPPRLPRPRPRPHHEPRP | 0.325
86 | RRIRGRPPRLPRPRPRPHHVPRP | -0.00478
87 | RRIRGRPPRLPRPRPRPHIMPRP | -0.0914
88 | RRIRGRPPRLPRPRPRPHLPPRP | 0.0386
89 | RRIRGRPPRLPRPRPRPHNGPRP | 0.0528
90 | RRIRGRPPRLPRPRPRPHPAPRP | 0.853
91 | RRIRGRPPRLPRPRPRPHQDPRP | 0.165
92 | RRIRGRPPRLPRPRPRPHRCPRP | -0.0209
93 | RRIRGRPPRLPRPRPRPHSGPRP | -0.0558
94 | RRIRGRPPRLPRPRPRPHSIPRP | 0.169
95 | RRIRGRPPRLPRPRPRPHWLPRP | 0.14
96 | RRIRGRPPRLPRPRPRPHWWPRP | 0.66
97 | RRIRGRPPRLPRPRPRPHYDPRP | -0.0292
98 | RRIRGRPPRLPRPRPRPHYFPRP | 0.313
99 | RRIRGRPPRLPRPRPRPHYSPRP | -0.661
100 | RRIRGRPPRLPRPRPRPHYYPRP | -0.119

Row | Sequence | shrunken log2 fold change
101 | RRIRGRPPRLPRPRPRPICYPRP | 0.543
102 | RRIRGRPPRLPRPRPRPIDFPRP | -0.0475
103 | RRIRGRPPRLPRPRPRPIFDPRP | 0.378
104 | RRIRGRPPRLPRPRPRPIHMPRP | -0.0548
105 | RRIRGRPPRLPRPRPRPIHSPRP | -0.441
106 | RRIRGRPPRLPRPRPRPIIFPRP | 0.437
107 | RRIRGRPPRLPRPRPRPIIHPRP | -0.261
108 | RRIRGRPPRLPRPRPRPIIRPRP | 0.07
109 | RRIRGRPPRLPRPRPRPILAPRP | 0.492
110 | RRIRGRPPRLPRPRPRPILTPRP | 0.351
111 | RRIRGRPPRLPRPRPRPILWPRP | 0.376
112 | RRIRGRPPRLPRPRPRPIMGPRP | 0.0308
113 | RRIRGRPPRLPRPRPRPIMMPRP | -0.0902
114 | RRIRGRPPRLPRPRPRPINKPRP | 0.287
115 | RRIRGRPPRLPRPRPRPIQSPRP | -0.0426
116 | RRIRGRPPRLPRPRPRPIYTPRP | 0.173
117 | RRIRGRPPRLPRPRPRPIYVPRP | 1.23
118 | RRIRGRPPRLPRPRPRPKAPPRP | 0.855
119 | RRIRGRPPRLPRPRPRPKAQPRP | 1.27
120 | RRIRGRPPRLPRPRPRPKATPRP | 1.52
121 | RRIRGRPPRLPRPRPRPKAVPRP | 0.89
122 | RRIRGRPPRLPRPRPRPKAWPRP | 0.922
123 | RRIRGRPPRLPRPRPRPKCRPRP | 0.299
124 | RRIRGRPPRLPRPRPRPKCYPRP | 0.107
125 | RRIRGRPPRLPRPRPRPKDDPRP | 0.293

Row | Sequence | shrunken log2 fold change
126 | RRIRGRPPRLPRPRPRPKEFPRP | -0.0157
127 | RRIRGRPPRLPRPRPRPKEQPRP | 0.0833
128 | RRIRGRPPRLPRPRPRPKGLPRP | 0.016
129 | RRIRGRPPRLPRPRPRPKHSPRP | 0.209
130 | RRIRGRPPRLPRPRPRPKLGPRP | 1.12
131 | RRIRGRPPRLPRPRPRPKLQPRP | 0.991
132 | RRIRGRPPRLPRPRPRPKMDPRP | 0.738
133 | RRIRGRPPRLPRPRPRPKMHPRP | 0.769
134 | RRIRGRPPRLPRPRPRPKNTPRP | 0.232
135 | RRIRGRPPRLPRPRPRPKNWPRP | 0.466
136 | RRIRGRPPRLPRPRPRPKPCPRP | 0.422
137 | RRIRGRPPRLPRPRPRPKPRPRP | 1.16
138 | RRIRGRPPRLPRPRPRPKQEPRP | 0.0916
139 | RRIRGRPPRLPRPRPRPKQIPRP | 0.335
140 | RRIRGRPPRLPRPRPRPKQRPRP | 0.471
141 | RRIRGRPPRLPRPRPRPKREPRP | -0.00218
142 | RRIRGRPPRLPRPRPRPKRRPRP | 1.3
143 | RRIRGRPPRLPRPRPRPKSCPRP | 0.959
144 | RRIRGRPPRLPRPRPRPKSTPRP | 1.41
145 | RRIRGRPPRLPRPRPRPKTKPRP | 0.0509
146 | RRIRGRPPRLPRPRPRPKVNPRP | 0.236
147 | RRIRGRPPRLPRPRPRPKWNPRP | 0.581
148 | RRIRGRPPRLPRPRPRPKYDPRP | 1.62
149 | RRIRGRPPRLPRPRPRPLASPRP | 0.894
150 | RRIRGRPPRLPRPRPRPLCMPRP | 0.605
